{
  "source": "patent US20230314420A1",
  "about": "(Genentech, published 2023)",
  "binders": {"B1": {"name": "PEG-Filgrastim (other, UniProt P09919-2 31-204, looked up)", "chain": "TPLGPASSLPQSFLLKCLEQVRKIQGDGAALQEKLCATYKLCHPEELVLLGHSLGIPWAPLSSCPSQALQLAGCLSQLHSGLFLYQGLLQALEGISPELGPTLDTLQLDVADFATTIWQQMEELGMAPALQPTQGAMPAFASAFQRRAGGVLVASHLQSFLEVSYRVLRHLAQP", "modifications": "pegylated; site not stated", "notes": "Specificity control"}, "B2": {"name": "Filgrastim (other, UniProt P09919-2 31-204, looked up)", "chain": "TPLGPASSLPQSFLLKCLEQVRKIQGDGAALQEKLCATYKLCHPEELVLLGHSLGIPWAPLSSCPSQALQLAGCLSQLHSGLFLYQGLLQALEGISPELGPTLDTLQLDVADFATTIWQQMEELGMAPALQPTQGAMPAFASAFQRRAGGVLVASHLQSFLEVSYRVLRHLAQP", "notes": "Specificity control"}, "B3": {"name": "Trastuzumab coat reagent: recombinant HER2 extracellular domains I, III, IV fused to a murine Fc; domain II is replaced by structurally related domain II of … (Fc fusion)", "chain": "KYALADASLKMADPNRFRGKDLPVLDQLLEAASTQVCTGTDMKLRLPASPETHLDMLRHLYQGCQVVQGNLELTYLPTNASLSFLQDIQEVQGYVLIAHNQVRQVPLQRLRIVRGTQLFEDNYALAVLDNGDPLNNTTPVTGASPGGLRELQLRSLTEILKGGVLIQRNPQLCYQDTILWKDIFHKNNQLALTLIDTNRSRACHPCSPMCKGSRCWGESSEDCQKLTKIICAQQCSGRCRGKSPSDCCHNQCAAGCTGPRESDCLVCRKFRDEATCKDTCPPLMLYNPTTYQMDVNPEGKYSFGATCVKKCPRNYVVTDHGSCVRACGADSYEMEEDGVRKCKKCEGPCRKVCYGLGMEHLREVRAVTSANIQEFAGCKKIFGSLAFLPESFDGDPASNTAPLQPEQLQVFETLEEITGYLYISAWPDSLPDLSVFQNLQVIRGRILHNGAYSLTLQGLGISWLGLRSLRELGSGLALIHHNTHLCFVHTVPWDQLFRNPHQALLHTANRPEDECVGEGLACHQLCARGHCWGPGPTQCVNCSQFLRGQECVEECRVLQGLPREYVNARHCLPCHPECQPQNGSVTCFGPEADQCVACAHYKDPPFCVARCPSGVKPDLSYMPIWKFPDEEGACQPCPINCTHSCVDLDDKGCPAEQRRAQVTDKKIEPRGPTIKPCPPCKCPAPNLLGGPSVFIFPPKIKDVLMISLSPIVTCVVVDVSEDDPDVQISWFVNNVEVHTAQTQTHREDYNSTLRVVSALPIQHQDWMSGKEFKCKVNNKDLPAPIERTISKPKGSVRAPQVYVLPPPEEEMTKKQVTLTCMVTDFMPEDIYVEWTNNGKTELNYKNTEPVLDSDGSYFMYSKLRVEKKNWVERNSYSCSVVHEGLHNHHTTKSFSRTPGK", "notes": "also called T-HER2 variant; capture reagent of the trastuzumab ELISA"}, "B4": {"name": "Vorhyaluronidase Alfa (recombinant human hyaluronidase rHuPH20) (enzyme, UniProt P38567 36-482, looked up)", "chain": "LNFRAPPVIPNVPFLWAWNAPSEFCLGKFDEPLDMSLFSFIGSPRINATGQGVTIFYVDRLGYYPYIDSITGVTVNGGIPQKISLQDHLDKAKKDITFYMPVDNLGMAVIDWEEWRPTWARNWKPKDVYKNRSIELVQQQNVQLSLTEATEKAKQEFEKAGKDFLVETIKLGKLLRPNHLWGYYLFPDCYNHHYKKPGYNGSCFNVEIKRNDDLSWLWNESTALYPSIYLNTQQSPVAATLYVRNRVREAIRVSKIPDAKSPLPVFAYTRIVFTDQVLKFLSQDELVYTFGETVALGASGIVIWGTLSIMRSMKSCLLLDNYMETILNPYIINVTLAAKMCSQVLCQEQGVCIRKNWNSSDYLHLNPDNFAIQLEKGGKFTVRGKPTLEDLEQFSEKFYCSCYSTLSCKEKADVKDTDAVDVCIADGVCIDAFLKPPMETEEPQIFY", "notes": "Also the only protein in the two rHuPH20-containing formulation buffers tested as samples; also called rHuPH20-Containing FDC LD Formulation Buffer; rHuPH20-Containing FDC MD Formulation Buffer"}, "B5": {"name": "Pertuzumab coat reagent: recombinant HER2 extracellular domains I, II, III fused to a murine Fc; domain IV (containing the trastuzumab epitope) is depleted (Fc fusion)", "chain": "KYALADASLKMADPNRFRGKDLPVLDQLLESTQVCTGTDMKLRLPASPETHLDMLRHLYQGCQVVQGNLELTYLPTNASLSFLQDIQEVQGYVLIAHNQVRQVPLQRLRIVRGTQLFEDNYALAVLDNGDPLNNTTPVTGASPGGLRELQLRSLTEILKGGVLIQRNPQLCYQDTILWKDIFHKNNQLALTLIDTNRSRACHPCSPMCKGSRCWGESSEDCQSLTRTVCAGGCARCKGPLPTDCCHEQCAAGCTGPKHSDCLACLHFNHSGICELHCPALVTYNTDTFESMPNPEGRYTFGASCVTACPYNYLSTDVGSCTLVCPLHNQEVTAEDGTQRCEKCSKPCARVCYGLGMEHLREVRAVTSANIQEFAGCKKIFGSLAFLPESFDGDPASNTAPLQPEQLQVFETLEEITGYLYISAWPDSLPDLSVFQNLQVIRGRILHNGAYSLTLQGLGISWLGLRSLRELGSGLALIHHNTHLCFVHTVPWDQLFRNPHQALLHTANRPEDECVRRAQVTDKKIEPRGPTIKPCPPCKCPAPNLLGGPSVFIFPPKIKDVLMISLSPIVTCVVVDVSEDDPDVQISWFVNNVEVHTAQTQTHREDYNSTLRVVSALPIQHQDWMSGKEFKCKVNNKDLPAPIERTISKPKGSVRAPQVYVLPPPEEEMTKKQVTLTCMVTDFMPEDIYVEWTNNGKTELNYKNTEPVLDSDGSYFMYSKLRVEKKNWVERNSYSCSVVHEGLHNHHTTKSFSRTPGK", "notes": "also called P-HER2 variant; capture reagent of the pertuzumab ELISA"}},
  "key": {"[1]": {"molecular_target": "B5", "assay": "pertuzumab ELISA specificity test, highest assay concentration, duplicate, OD(405 nm)-OD(490 nm)"}, "[2]": {"molecular_target": "B3", "assay": "trastuzumab ELISA specificity test, highest assay concentration, duplicate, OD(405 nm)-OD(490 nm)"}, "[3]": {"molecular_target": "B2", "assay": "trastuzumab ELISA specificity test"}, "[4]": {"molecular_target": "B1", "assay": "trastuzumab ELISA specificity test"}, "[5]": {"molecular_target": "B4", "assay": "trastuzumab ELISA specificity test; sample rHuPH20-Containing FDC LD Formulation Buffer"}, "[6]": {"molecular_target": "B3", "assay": "trastuzumab ELISA specificity test; sample Pertuzumab IV"}, "[7]": {"molecular_target": "B2", "assay": "pertuzumab ELISA specificity test"}, "[8]": {"molecular_target": "B1", "assay": "pertuzumab ELISA specificity test"}, "[9]": {"molecular_target": "B4", "assay": "pertuzumab ELISA specificity test; sample Vorhyaluronidase Alfa"}},
  "data": [
    {"binder": "B1", "values": [
      {"measurement": "OD Mean of Replicates", "setting": "[1]", "result": 0.07, "unit": "OD"},
      {"measurement": "OD Mean of Replicates", "setting": "[2]", "result": 0.03, "unit": "OD"}
    ]},
    {"binder": "B2", "values": [
      {"measurement": "OD Mean of Replicates", "setting": "[1]", "result": 0.08, "unit": "OD"},
      {"measurement": "OD Mean of Replicates", "setting": "[2]", "result": 0.04, "unit": "OD"}
    ]},
    {"binder": "B3", "values": [
      {"measurement": "binding result", "setting": "[3]", "result": "no binding"},
      {"measurement": "binding result", "setting": "[4]", "result": "no binding"},
      {"measurement": "binding result", "setting": "[5]", "result": "no binding"}
    ]},
    {"binder": "B4", "values": [
      {"measurement": "OD Mean of Replicates", "setting": "[1]", "result": 0.07, "unit": "OD"},
      {"measurement": "OD Mean of Replicates", "setting": "[2]", "result": 0.03, "unit": "OD"}
    ]},
    {"binder": "Pertuzumab (antibody, human IgG1, kappa, V domains shown, also called rhuMAb 2C4; Pertuzumab IV) VH: EVQLVESGGGLVQPGGSLRLSCAASGFTFTDYTMDWVRQAPGKGLEWVADVNPNSGGSIYNQRFKGRFTLSVDRSKNTLYLQMNSLRAEDTAVYYCARNLGPSFYFDYWGQGTLVTVSS VL: DIQMTQSPSSLSASVGDRVTITCKASQDVSIGVAWYQQKPGKAPKLLIYSASYRYTGVPSRFSGSGSGTDFTLTISSLQPEDFATYYCQQYYIYPYTFGQGTKVEIKR", "values": [
      {"measurement": "binding result", "setting": "[6]", "result": "no binding"}
    ]},
    {"binder": "B5", "values": [
      {"measurement": "binding result", "setting": "[7]", "result": "no binding"},
      {"measurement": "binding result", "setting": "[8]", "result": "no binding"},
      {"measurement": "binding result", "setting": "[9]", "result": "no binding"}
    ]}
  ]
}
